Assay [1] deals with MKN-45 gastric carcinoma cells. The assay is described as follows: Standard preparation for autocrine ROS-controlled apoptosis induction in tumor cells (percentage of apoptotic cells). Format: cell-based, human. The settings on record: for apoptosis induction in MKN-45 cells: increasing concentrations, 3-4 hours at 37° C., 5% CO2. On the procedure:
(§1) The experiments shown in FIG. 13-24 were carried out with a standard preparation for the apoptosis induction that is based on the method performed in Heinzelmann and Bauer 2010. The tumor cells used were taken from an optimally growing semi-sealed culture, centrifuged and placed in fresh medium. The test was performed in 96-well cell culture plates with 12 500 MKN-45 cells/100 μl medium or 10 000 SHEP cells/100 μl medium. MKN-45 cells grow in suspension, SHEP cells are adherent. The tests with SHEP cells were started as soon as the cells had grown on. By adding increasing concentrations of single domain VHH fragments that either inhibit catalase or SOD the protection of the tumor cells from their own ROS signaling was annulled so that based on the cell-owned extracellular superoxide anion production the NO/peroxynitrite signal path and the HOCl path (with MKN-45 cells) or in case of the SHEP cells only the NO/peroxynitrite path could start when the cells were incubated at 37° C. The analysis of the signal paths was carried out by the application of inhibitors of the NADPH oxidase (AEBSF), the HOCl scavenger taurine, the peroxynitrite scavenger FeTPPS and the singlet oxygen scavenger histidine. In some experiments for comparison instead of the single domain VHH fragments either recombinant Fab fragments or monoclonal antibodies were applied. This is indicated in the respective illustrations.
Double preparations were examined at the times shown in the text by means of phase contrast reverse microscopy for the percentage of apoptotic cells. Here, the classical apoptosis criteria described and documented in Heinzelmann and Bauer 2010 such as condensation of the nucleus, fragmentation of the nucleus, and membrane blebbing were used. Per single preparation at least 250 randomly selected cells were examined for the presence of apoptosis features. […]

Assay [2] concerns human neuroblastoma line SHEP. Description: Standard preparation for apoptosis induction in SHEP cells (percentage of apoptotic cells). It is filed as cell-based. The procedure:
as §1
Double preparations were examined at the times shown in the text by means of phase contrast reverse microscopy for the percentage of apoptotic cells. Here, the classical apoptosis criteria described and documented in Heinzelmann and Bauer 2010 such as condensation of the nucleus, fragmentation of the nucleus, and membrane blebbing were used. Per single preparation at least 250 randomly selected cells were examined for the presence of apoptosis features.
10 000 cells of the human neuroblastoma line SHEP per 100 μl medium were mixed with the given concentrations of the catalase-neutralizing single domain VHH fragment aCATcb0972, the SOD-neutralizing single domain VHH fragment aSOD0989, the SOD-binding but not neutralizing single domain VHH fragment aSODcb991 and the hybrid molecule aCATaSOD and incubated for 5 hours at 37° C., 5% CO2, before percentages of apoptotic cells were determined.
10 000 cells of the human neuroblastoma line SHEP per 100 μl medium were mixed with the given concentrations of the SOD-neutralizing single domain VHH fragment aSOD0989. Parallel preparations received 20 μM or 100 μM of the NO donor sodium nitroprusside or were incubated without a further additive. After 5 hours at 37° C., 5% CO2 the percentages of apoptotic cells were determined.

Setting [3] is: Table 2, FIG. 20 experiment, 3.5 hours.

Entries after “also recorded” stand apart in the source; their conditions may differ.

For the molecule `CC(=O)O[C@H]1C(=O)[C@@]2(C)[C@H]([C@H](OC(=O)c3ccccc3)[C@]3(O)C[C@H](OC(=O)[C@H](O)[C@@H](NC(=O)c4ccccc4)c4ccccc4)C(C)=C1C3(C)C)[C@]1(OC(C)=O)CO[C@@H]1C[C@@H]2O` [taxol, reference compound], in assay [1] (4 hours), the “displacement of the required taxol concentration by neutralizing single domain VHH fragments” value was “less than a thousandth” and the “optimum effect concentration of taxol alone” value was determined as 1100 ng/mL. Besides, in assay [1], the “apoptosis induction in MKN-45 cells” value was “induces apoptosis in the tumor cells in a concentration-dependent manner”.

B1: aCATaSOD: bispecific hybrid single domain VHH fragment of cb 0972 and cb 0989 connected via a linker; SEQ ID NO: 17 (protein)
VHH: MAQVQLVESGGGLVQAGGSLRLSCAASERTFNTYGMGWFRQAPGKEREFVATISWSGDSTYYADSVKGRFTISRDNAKNTMYLQMNSLKPEDTAVYYCNANSEYGDSYWGQGTQVTVSSGGGGSGGGGSGGGGSAQVQLVESGGGLVQSGGSLTLSCTASGFTISNYPMTWVRQAPGKGLEWVSRINSGGDRTLYADSVKGRFTVSRDNARNTMYLQMNNLKPEDTGLYFCADSGAGWRYWGQGTQVTVSSKKKHHHHHH
modifications: bispecific
For the molecule B1, in assay [1] (24 nM siRNA, four hours), the “apoptosis induction after siRNA-mediated knockdown of FAS receptor or caspase-8” value is “does not require the FAS receptor and its downstream caspase-8; also recorded: prevents the supra-optimum drop of the apoptosis induction curve”; the “apoptosis induction after siRNA-mediated knockdown of NOX1, iNOS2 or caspase-9” value is on record as “completely prevents the apoptosis induction”. Moreover, the “apoptosis induction in the presence of peroxynitrite scavenger FeTPPS” value in assay [1] (25 μM FeTPPS) is “complete inhibition by FeTPPS”. Further, in assay [1] (100 μM AEBSF), the “apoptosis induction in the presence of NOX1 inhibitor AEBSF” value is “completely prevented”. Further, in assay [1] (2 mM histidine), the “apoptosis induction in the presence of singlet oxygen scavenger histidine” value is listed as “attenuating effect on the right-side drop of the optimum curve”. Moreover, the “apoptosis induction in the presence of HOCl scavenger taurine” value in assay [1] (50 mM taurine) is on record as “no inhibition by taurine”. Besides, in assay [1] (setting [3]), the optimum conc. was determined as 2.4e-07 ng/mL. Further, the “apoptosis induction in MKN-45 cells” value in assay [1] is “gradually superior over the reverse arrangement”. Besides, the “ROS signaling path induced” value in assay [1] (inhibitor analysis) is on record as “exclusively the NO/peroxynitrite path”. For the same molecule, the “efficacy compared with single domain VHH fragments directed against one target structure” value in assay [2] (5 hours) is recorded as “much more effective”. In addition, in assay [2] (5 hours at 37° C., 5% CO2), the “apoptosis induction in SHEP cells” value is listed as “can induce concentration-dependent apoptosis”.

B2: monoclonal aCAT: neutralizing conventional monoclonal antibody against catalase (Sigma) as a control (protein)
VHH: MAQVQLVESGGGLVQAGGSLRLSCAASERTFNTYGMGWFRQAPGKEREFVATISWSGDSTYYADSVKGRFTISRDNAKNTMYLQMNSLKPEDTAVYYCNANSEYGDSYWGQGTQVTVSSKKKHHHHHH
As to B2, the “optimum effect concentration (text, FIG. 20)” value in assay [1] (3.5 hours) amounted to 111 ng/mL. Also, the “relation to opt. conc. single domain Fab” value in assay [1] (Table 1, concentration basis, versus the corresponding single domain VHH) is given as 277 500. For the same molecule, the optimum conc. was found to be 111 ng/mL in assay [1] (Table 1, concentration necessary for optimum apoptosis induction, taken from FIGS. 13A, 13B, 15A, 15B, 20) and 111 ng/mL in assay [1] (setting [3]). In addition, the “relation (molar basis)” value in assay [1] (Table 1, versus the corresponding single domain VHH) was 46 250; in assay [1] (Table 2, versus hybrid aCATaSOD), 1.54 × 10^8. Further, the “relation to opt. conc. hybrid Fab” value in assay [1] (Table 2, concentration basis, versus hybrid aCATaSOD) is on record as 4.6 × 10^8.

The values are drawn from patent US10669350B2, “Antigen-binding constructs that bind to and inhibit catalase and/or superoxide dismutase as well as pharmaceutical compositions containing them for tumor therapy” (priority 2015, dated 2020).
